Test results: US20130171217A1, “ENZYMATIC PERACID GENERATION FOR USE IN SKIN CARE PRODUCTS” (E I DU PONT DE NEMOURS AND COMPANY, priority 2010, published 2013)
Marks after values point to notes of the source that are not given here.

B1: C277S-HC263: C277S variant of Thermotoga maritima perhydrolase fused via a flexible linker to hair-binding domain HC263 (protein)
chain: MAFFDLPLEELKKYRPERYEEKDFDEFWEETLAESEKFPLDPVFERMESHLKTVEAYDVTFSGYRGQRIKGWLLVPKLEEEKLPCVVQYIGYNGGRGFPHDWLFWPSMGYICFVMDTRGQGSGWLKGDTPDYPEGPVDPQYPGFMTRGILDPRTYYYRRVFTDAVRAVEAAASFPQVDQERIVIAGGSQGGGIALAVSALSKKAKALLCDVPFLCHFRRAVQLVDTHPYAEITNFLKTHRDKEEIVFRTLSYFDGVNFAARAKIPALFSVGLMDNISPPSTVFAAYNYYAGPKEIRIYPYNNHEGGGSFQAVEQVKFLKKLFEKGGPGSGGAGSPGSAGGPGSPSAQSQLPDKHSGLHERAPQRYGPEPEPEPEPIPEPPKEAPVVIEKPKPKPKPKPKPPAHDHKNQKETHQRHAAGSGGGGSPHHHHHH
B2: C277S: non-targeted C277S variant of the Thermotoga maritima perhydrolase, un-targeted control (protein, listed as Thermotoga maritima)
chain: MAFFDLPLEELKKYRPERYEEKDFDEFWEETLAESEKFPLDPVFERMESHLKTVEAYDVTFSGYRGQRIKGWLLVPKLEEEKLPCVVQYIGYNGGRGFPHDWLFWPSMGYICFVMDTRGQGSGWLKGDTPDYPEGPVDPQYPGFMTRGILDPRTYYYRRVFTDAVRAVEAAASFPQVDQERIVIAGGSQGGGIALAVSALSKKAKALLCDVPFLCHFRRAVQLVDTHPYAEITNFLKTHRDKEEIVFRTLSYFDGVNFAARAKIPALFSVGLMDNISPPSTVFAAYNYYAGPKEIRIYPYNNHEGGGSFQAVEQVKFLKKLFEKG

Key:
[1] = Single fiber tensile strength after one-step enzymatic application
Method: (§1) Hair samples were cut into pieces 4-inches in length. The denier number (liner mass density) of each hair fiber was measured by Textechno Vibromat Instrument (Textechno Herbert Stein GmbH & Co. KG; Germany). The hair fibers were tested according to ASTM D 3822-01 (“Tensile Properties of Single Textile Fibers”; ASTM International, West Conshohocken, Pa., 2001), on an Instron testing system (Instron Model 1122 Tester; Instron, Mass.) at about 70° F. (approximately 21° C.) and 65% relative humidity. The treated area of the hair sample was placed in the middle of the gauge and both ends were gripped on the test heads. Both fiber ends were attached on a piece of tape, respectively, for easy handling and gripping on the test heads. The test used 2-inch (5.1 cm) gauge length, […], and 1.2 inch/min (3 cm/min) pulling rate. The force-strain curve of the fiber was recorded during the test. The tenacity at maximum (gf/den) was calculated by dividing maximum force (gf) by denier number (den). Note that (gf/den)/11.33=Newtons/tex (N/tex).
The first method (referred to herein as the “one-step approach”) comprises combining different amounts of at least one CE-7 perhydrolase with triacetin (an example of a suitable ester substrate) and hydrogen peroxide to generate peracetic acid. Hair bundles were inserted into “one step approach” solutions for 15 min immediately after mixing the enzyme solution with triacetin solution (final concentration was about 100 mM) and H2O2 solution (final concentration was about 250 mM). The hair samples were rinsed with water and dried. The method was repeated for another 15 times (total application was 16 times). In one experiment, two perhydrolase enzymes were used, i.e., untargeted T. maritima variant C277S (“C277S”; “PAH”; SEQ ID NO: 293) and “C277S-HC263” (SEQ ID NO: 288). The concentration of peracetic acid in solution after 15 min was evaluated by HPLC.

[2] = Single fiber tensile strength and bleaching start after two-step enzymatic application
Method: as §1
In a two-step application, the hair strands are first treated with perhydrolase solutions to allow the enzyme to bind hair. The hair strands are then dried or rinsed with buffer and dried. The rinse step is intended to remove excess unbound enzyme from the hair. The hair strands are soaked in triacetin and H2O2 solutions. The application is repeated for multiple times.
One experiment was carried out with C277S-HC263 and untargeted T. maritima variant C277S using the following protocol: • 1. Enzyme solutions comprising 0.5 mg/mL enzyme in 50 mM phosphate buffer (pH 8) were made with or without 10 wt % urea. • 2. Seven (7) hair strands were soaked in 0.2 mL of an enzyme solution for 10 min and then dried under N2 without prior rinsing. • 3. The hair strands were then soaked in 0.2 mL of a pH 8 solution containing 100-mM triacetin and 250-mM H2O2 for 15 min, dried, then rinsed with DI water and then dried again. • 4. Steps 2-3 were repeated up to 15 times.
Another experiment was carried out with C277S-HC263 (SEQ ID NO: 288), CPAH-HC263 (SEQ ID NO: 294), CPAH-HC1010 (SEQ ID NO: 295) and untargeted C277S using the following protocol: • 1. Enzyme solutions comprising 1.0 mg/mL enzyme in 50 mM phosphate buffer (pH 6) were prepared. For solutions containing two enzymes, the concentration of each enzyme was approximately 0.5 mg/mL. • 2. Seven (7) hair strands were soaked in 0.2 mL of an enzyme solution for 10 min, rinsed with 50 mM phosphate buffer (pH 6), and then dried under N2. • 3. The dried hair strands were then soaked into 0.2 mL of 50 mM phosphate buffer solution (pH 8) comprising 100 mM triacetin and 250 mM H2O2 for 15 min, dried, then rinsed with DI water and then dried again. • 4.

[3] = two-step with buffer rinse, 1.0 mg/mL enzyme pH 6, 100 mM triacetin, 250 mM H2O2, up to 13 repeats
[4] = two-step without rinse, 0.5 mg/mL enzyme pH 8, urea 0 wt %
[5] = two-step without rinse, 0.5 mg/mL enzyme pH 8, urea 0 wt %, 100 mM triacetin, 250 mM H2O2
[6] = two-step without rinse, 0.5 mg/mL enzyme pH 8, urea 10 wt %, 100 mM triacetin, 250 mM H2O2

Molecule | Ten. @ Max ([1]; 0.05 mg/mL enzyme, urea 0 wt %, 15 min × 16) [gf/den] | Ten. @ Max ([1]; 0.25 mg/mL enzyme, urea 0 wt %, 15 min × 16, average of less than 3 strands) | Ten. @ Max ([1]; 0.5 mg/mL enzyme, urea 0 wt %, 15 min × 16) [gf/den] | Tenacity @ max [2, 3] [gf/den] | Bleaching Start [2, 4] [th] | Tenacity @ max [2, 5] [gf/den] | Tenacity @ max [2, 6] [gf/den] | Ten. @ Max ([1]; 0.05 mg/mL enzyme, urea 10 wt %, 15 min × 16) [gf/den] | Ten. @ Max ([1]; 0.25 mg/mL enzyme, urea 10 wt %, 15 min × 16, average of less than 3 strands) | Ten. @ Max ([1]; 0.5 mg/mL enzyme, urea 10 wt %, 15 min × 16) [gf/den] | Bleaching Start ([2]; two-step without rinse, 0.5 mg/mL enzyme pH 8, urea 10 wt %) [th]
B1 | 1.0 | 0.4^# gf/den | 0.7 | 1.7 | 15 | 1.2 | 1.7 |  |  |  | 
B2 |  |  |  | 1.7 | 13 | 0.7 | 0.6 | 0.3 | 0.6^# gf/den | 0.6 | 12
